The values that follow come from PMC11289257 (2024).

The labels stand for the following.
B1: porcine antibody F11 (class II) (Fab, V domains shown)
VH: EEKLVESGGGLVKPGGSLKLSCVGSGSTFSSDAVSWVRQAPGKGLEWLAGIDGDGYGVSTYYADSVKGRFTISRDNSQKTAYLQMNSLRTDDTARYYCAECPMVLLAKCSMEFWGPGVEVVVSS
VL: QTVIQEPAMSVSLGGTVTLTCAFSSGSVTSSNYPGWFQQTPGQPPRLLIYQTNSRPTGVPSRFSGAISGNRAALTITGAQAEDEADYFCGLWKSGTDLPFGGGTHLTVL
B2: porcine antibody F5 (class II) (antibody, V domains shown)
VH: B1 VH
VL: QTVIQEPAMSVSPGGTVTLTCAFSSGSVTTRNYPSWFQQTPGQPPRLLIGRTNNRPTGVPSRFSGVISGNKAALVITGAQANDEATYFCSLYSPDTIIFGSGTHLTVL
B3: porcine antibody B1 (class I) (Fab, V domains shown)
VH: EVKLVESGGGLVQPGGSLKLSCVGSGSTFSSDAVSWVRQAPGKGLEWLAGIDGDGGGGSTYYADSVKGRFTISRDNSQKTAYLQMNSLRTDDTARYYCAECPMVLLAKCSMEFWGPGVEVVVS
VL: DIVLTQTPRSLSVSPGEPASISCRSSQSLEEYGKNWLSWYQQKPGQSPRLLIYQATNRASWVPERFSGSGSGTDFTLKISRVEAEDVGVYYCFQDLQPPNGFGAGTKLELK
B4: porcine antibody C9 (class III) (Fab, V domains shown)
VH: EVKLVESGGGLVQPGGSLRLSCVGSGFTFSSYEINWVRQAPGKGLEWLAVVSKIGDRTYYADSVRGRLTISRDNSQNTAYLQMNSLRTEDTARYYCVRAWCASTCLPGDIMDLWGPGVGVVVSS
VL: QTVIQEPAMSVSPGGTVTLTCAWSSGSVTTSNYPSWFQQTPGQPPRQLIYNTNSRPTGVPRRFSGKISGNKAALTITGAQAEDEADYFCGLYKRSANNIFGGGTHLTVL
B5: porcine antibody H3 (class III) (Fab, V domains shown)
VH: QEKLVESGGGLVQPGGSLILSCVGSGFTFITYEINWVRQAPGKGLEWLAVVSKIGDRTYYAHSVRGRLTISRDNSQNTAYLQMNSLRTEDTARYYCVRAWCATTCLPGDIMDLWGPGVGVIV
VL: TVIHEPAMSLSPGGTDTLTCAFSSGSITNNNYPSWFQQTPRQPPRLLIYNTNNRPTGVPSRFSGAISGNKAALTITGAQANDEADYFCTLYISIADVIFGGGTHLTVL
B6: porcine antibody G6 (class IV) (Fab, V domains shown)
VH: EVKLVESGGGLVQPGGSLTLSCVGSGYTFSSYPICWVRQAPGKGLEWLSCIDSSGSKMHLADSVLSRFTISKDNSQNTAYLQMNSLRTEDTARYYCARGRWCYGVICDMDLWGPGVEVVVSS
VL: IVLTQTPLSLSVSPGEPASISCRSSQSLEEYGKNWLSWYQQKPGQSPRLLIYQATNRASWVPERFSGSGSGTDFTLKISRVEAEDAGVYYCQQYKEFPWTFGQGTKLELK

The target of the first assay is T1, African swine fever virus major capsid protein p72 (p72 capsomer, trimer) (African swine fever virus, UniProt P22776). Briefly: SPR. On the technique in general: In SPR one partner is held on a chip, and binding of the other changes the refractive index at the surface.
Regarding B1, the koff (as a rule, the first-order rate constant of dissociation) turned out to be 0.000267 s⁻¹.
With B2, the koff turned out to be 0.0134 s⁻¹.
In turn, B3 came in with a koff of 7.08e-05 s⁻¹.
In turn, B4 registered a koff of 0.00893 s⁻¹.
B5: the koff was 0.00494 s⁻¹.
Turning to B6, the koff came out at 0.00952 s⁻¹.

The target in the next assay is T1, African swine fever virus major capsid …. Briefly: SPR. This is another data set of the same source.
For B1, the dissociation constant (Kd) (commonly the equilibrium constant for the complex coming apart) was determined as 9.13 nM. This counts as single-digit nanomolar.
With B2, binding was put at a Kd of 3160 nM.
B3 returned a Kd of 3.12 nM.
With B4, the dissociation constant (Kd) amounted to 1490 nM. Against the preceding molecule, the Kd is about 480-fold higher.
The molecule B5 had a Kd of 998 nM.
For B6, the Kd amounted to 1920 nM.
